Assay results: PMC10980815, “Cell surface patching via CXCR4-targeted nanothreads for cancer metastasis inhibition” (Nature Communications, 2024)
Ends that are not written are not given here. HPMA copolymer = HPMA copolymer made by RAFT copolymerization of HPMA with N-(3-aminopropyl)methacrylamide (APMA), bearing maleimide groups for grafting

Experiment: Pharmacokinetics at each cycle of a four-round treatment regimen
Type: in vivo, female mice
Set-up: PK curves: unit not given here

P-CM2-Cy3: Cy3-labeled P-CM2 (C(HPMA copolymer)YGGEVSALEKEVSALEKKNSALEKEVSALEKEVSALEK; also: Cy3 label on conjugate, position not given here)
PK curves (Round 1, Time 0.041667 Day, replicate 1): 163.747
PK curves (Round 1, Time 0.041667 Day, replicate 2): 180.755
PK curves (Round 1, Time 0.041667 Day, replicate 3): 215.82
PK curves (Round 1, Time 0.041667 Day, replicate 4): 227.965
PK curves (Round 1, Time 0.041667 Day, replicate 5): 272.14
PK curves (Round 1, Time 0.083333 Day, replicate 1): 152.881
PK curves (Round 1, Time 0.083333 Day, replicate 2): 155.096
PK curves (Round 1, Time 0.083333 Day, replicate 3): 158.378
PK curves (Round 1, Time 0.083333 Day, replicate 4): 173.813
PK curves (Round 1, Time 0.083333 Day, replicate 5): 181.609
PK curves (Round 1, Time 0.166667 Day, replicate 1): 117.124
PK curves (Round 1, Time 0.166667 Day, replicate 2): 133.5
PK curves (Round 1, Time 0.166667 Day, replicate 3): 138.292
PK curves (Round 1, Time 0.166667 Day, replicate 4): 141.138
PK curves (Round 1, Time 0.166667 Day, replicate 5): 149.467
PK curves (Round 1, Time 0.25 Day, replicate 1): 99.512
PK curves (Round 1, Time 0.25 Day, replicate 2): 115.311
PK curves (Round 1, Time 0.25 Day, replicate 3): 115.69
PK curves (Round 1, Time 0.25 Day, replicate 4): 124.268
PK curves (Round 1, Time 0.25 Day, replicate 5): 126.538
PK curves (Round 1, Time 0.333333 Day, replicate 1): 72.638
PK curves (Round 1, Time 0.333333 Day, replicate 2): 80.332
PK curves (Round 1, Time 0.333333 Day, replicate 3): 81.864
PK curves (Round 1, Time 0.333333 Day, replicate 4): 87.045
PK curves (Round 1, Time 0.333333 Day, replicate 5): 96.736
PK curves (Round 1, Time 0.5 Day, replicate 1): 53.965
PK curves (Round 1, Time 0.5 Day, replicate 2): 58.639
PK curves (Round 1, Time 0.5 Day, replicate 3): 59.336
PK curves (Round 1, Time 0.5 Day, replicate 4): 66.884
PK curves (Round 1, Time 0.5 Day, replicate 5): 78.186
PK curves (Round 1, Time 1 Day, replicate 1): 21.997
PK curves (Round 1, Time 1 Day, replicate 2): 25.01
PK curves (Round 1, Time 1 Day, replicate 3): 29.67
PK curves (Round 1, Time 1 Day, replicate 4): 31.811
PK curves (Round 1, Time 1 Day, replicate 5): 36.626
PK curves (Round 1, Time 2 Day, replicate 1): 11.902
PK curves (Round 1, Time 2 Day, replicate 2): 17.163
PK curves (Round 1, Time 2 Day, replicate 3): 19.932
PK curves (Round 1, Time 2 Day, replicate 4): 21.481
PK curves (Round 1, Time 2 Day, replicate 5): 24.221
PK curves (Round 1, Time 3 Day, replicate 1): 3.355
PK curves (Round 1, Time 3 Day, replicate 2): 5.764
PK curves (Round 1, Time 3 Day, replicate 3): 7.718
PK curves (Round 1, Time 3 Day, replicate 4): 11.103
PK curves (Round 1, Time 3 Day, replicate 5): 11.877
AUC0-t (Round 1, same): 2910.449 ± 479.173 ng·h/mL
AUC0-∞ (Round 1, same): 3143.497 ± 607.036 ng·h/mL
MRT0-t (Round 1, same): 17.874 ± 1.409 h
MRT0-∞ (Round 1, same): 23.669 ± 4.167 h
T1/2z (Round 1 of four-round Nanothread-1→Nanothread-2 regimen, blood fluorescence, DAS 2.0, mean ± SD, n = 5): 19.104 ± 3.483 h
PK curves (Round 2, Time 0.041667 Day, replicate 1): 166.289
PK curves (Round 2, Time 0.041667 Day, replicate 2): 169.535
PK curves (Round 2, Time 0.041667 Day, replicate 3): 192.765
PK curves (Round 2, Time 0.041667 Day, replicate 4): 283.095
PK curves (Round 2, Time 0.041667 Day, replicate 5): 308.888
PK curves (Round 2, Time 0.083333 Day, replicate 1): 129.263
PK curves (Round 2, Time 0.083333 Day, replicate 2): 143.311
PK curves (Round 2, Time 0.083333 Day, replicate 3): 159.105
PK curves (Round 2, Time 0.083333 Day, replicate 4): 167.258
PK curves (Round 2, Time 0.083333 Day, replicate 5): 213.448
PK curves (Round 2, Time 0.166667 Day, replicate 1): 118.029
PK curves (Round 2, Time 0.166667 Day, replicate 2): 120.594
PK curves (Round 2, Time 0.166667 Day, replicate 3): 139.935
PK curves (Round 2, Time 0.166667 Day, replicate 4): 140.364
PK curves (Round 2, Time 0.166667 Day, replicate 5): 140.694
PK curves (Round 2, Time 0.25 Day, replicate 1): 88.6458
PK curves (Round 2, Time 0.25 Day, replicate 2): 101.112
PK curves (Round 2, Time 0.25 Day, replicate 3): 104.483
PK curves (Round 2, Time 0.25 Day, replicate 4): 106.877
PK curves (Round 2, Time 0.25 Day, replicate 5): 110.672
PK curves (Round 2, Time 0.333333 Day, replicate 1): 69.5736
PK curves (Round 2, Time 0.333333 Day, replicate 2): 78.4476
PK curves (Round 2, Time 0.333333 Day, replicate 3): 88.3019
PK curves (Round 2, Time 0.333333 Day, replicate 4): 89.2405
PK curves (Round 2, Time 0.333333 Day, replicate 5): 90.1636
PK curves (Round 2, Time 0.5 Day, replicate 1): 43.1833
PK curves (Round 2, Time 0.5 Day, replicate 2): 45.6973
PK curves (Round 2, Time 0.5 Day, replicate 3): 51.9942
PK curves (Round 2, Time 0.5 Day, replicate 4): 68.9589
PK curves (Round 2, Time 0.5 Day, replicate 5): 80.0862
PK curves (Round 2, Time 1 Day, replicate 1): 16.0352
PK curves (Round 2, Time 1 Day, replicate 2): 27.0822
PK curves (Round 2, Time 1 Day, replicate 3): 31.0181
PK curves (Round 2, Time 1 Day, replicate 4): 36.116
PK curves (Round 2, Time 1 Day, replicate 5): 40.972
PK curves (Round 2, Time 2 Day, replicate 1): 12.4543
PK curves (Round 2, Time 2 Day, replicate 2): 13.9537
PK curves (Round 2, Time 2 Day, replicate 3): 16.9804
PK curves (Round 2, Time 2 Day, replicate 4): 22.3399
PK curves (Round 2, Time 2 Day, replicate 5): 24.6061
PK curves (Round 2, Time 3 Day, replicate 1): 4.968
PK curves (Round 2, Time 3 Day, replicate 2): 5.058
PK curves (Round 2, Time 3 Day, replicate 3): 5.667
PK curves (Round 2, Time 3 Day, replicate 4): 9.298
PK curves (Round 2, Time 3 Day, replicate 5): 13.6533
AUC0-t (Round 2, same): 2845.842 ± 670.957 ng·h/mL
AUC0-∞ (Round 2, same): 3070.777 ± 804.281 ng·h/mL
MRT0-t (Round 2, same): 17.76 ± 1.068 h
MRT0-∞ (Round 2, same): 23.374 ± 3.332 h
T1/2z (Round 2, same): 18.965 ± 3.022 h
